Experimental data as given in US20230399361A1, “MACROCYCLIC PEPTIDES” (UNIVERSITY OF NOTRE DAME DU LAC, priority 2022, published 2023).
Each block holds one molecule with its values, some of them ahead of it. *1 amine or outer side, *2 acyl side, *3 side chain or, on linkers, in order; H or OH if unused. Where a SMILES comes first, the peptide text is derived from it. Primed or numbered codes have the meaning given here. [ ]: non-standard residue; d: D form. aTyr = Tyr with an NH2 on the backbone amide nitrogen (N-amino residue), NN([C@@H](Cc1ccc(O[*:3])cc1)C(=O)[*:2])[*:1]; aIle″ = Ile with an NH2 on the backbone amide nitrogen (N-amino residue), CC[C@H](C)[C@@H](C(=O)[*:2])N(N)[*:1]; aVal″ = Val with an NH2 on the backbone amide nitrogen (N-amino residue), CC(C)[C@@H](C(=O)[*:2])N(N)[*:1]; N(NH2)Lys = NCCCC[C@H](NN)C(=O)O

Experiments:
[1] = Human serum stability assay; settings: after 24 h, 37° C., HPLC
Method: Human Serum Stability Assay. The stability of NAPs in 25% human serum (MilliporeSigma) was assessed by HPLC. The reaction was started by adding NAPs at a final concentration of 500 μM in pre-warmed serum. The mixture was incubated at 37° C. for 24 h. A 100 μL aliquot of the reaction mixture was taken out at 0, 1, 4, and 24 h and was mixed with an equal volume of 20% trichloroacetic acid and incubated at 4° C. for 15 min to precipitate serum proteins. After centrifugation at 12,000 rpm for 10 min, the supernatant was collected and mixed with an internal standard (1 mg/mL Cbz-Tyr-OH dissolved in MeCN) and stored at −20° C. Samples were then analyzed by LC-MS, and the percentage of peptide remaining was calculated by integrating peaks.

AcPHF6 = target: T1, AcPHF6 (Homo sapiens, UniProt P10636); settings: Chem. Eur. J. 2017, 23, 9618; cited from earlier work
T1 construct: AcPHF6; Ac-Val-Gln-Ile-Val-Tyr-Lys-NH2; 790.4833

[2] = Self-aggregation of peptides alone by ThT fluorescence; assay type: physicochemical; settings: incubated alone in aq. NaOAc buffer, 48 h
Excerpt: (§1) NAP Tau Mimics Inhibit Tau Fibrilization In Vitro. We chose thioflavin T (ThT), an amyloid specific fluorescent dye that binds to β-sheet assemblies, to first evaluate the effect of NAPs on recombinant tau aggregation. For these studies, we expressed and purified full-length tau featuring a P301L mutation frequently observed in patients with frontotemporal dementia and Parkinsonism linked to chromosome 17 (FTDP-17). This missense mutation leads to local structure destabilization around the amyloid-forming region resulting in faster aggregation. Recombinant tauP301L aggregated in the presence of equimolar heparin sulfate (t1/2=6.5±0.4 h) starting with a very short 0.5 h lag phase, followed by a 24 h exponential growth phase. […] Compounds 2 and 4 are mono- and diaminated hexapeptides derived from the R2 PHF6* aggregation-prone sequence, whereas compounds 5, 6, 12, and 13 are all derived from the R3 PHF6 sequence. Several other NAPs had no effect on endpoint ThT fluorescence or lacked consistent inhibition across repeated experiments. […] NaOAc buffer, as evidenced by intense ThT fluorescence after 48 h (FIG. 1B).
Design and synthesis of aggregation-resistant backbone-aminated derivatives of mxyl-AD. The data above support the hypothesis that mxyl-AD mimetic macrocycle can engage in native-like hydrophobic cross-b interactions as well as edge-to-edge H-bonds along the fibril axis. We next sought to employ mxyl-AD as a template for the design of tau seeding inhibitors that could potentially cap fibril growth and block propagation. This required us to incorporate a chemical modification onto mxyl-AD that would preclude its ability to self-assemble without disrupting its capacity to adopt the conformation required to bind tau. We therefore designed two backbone N-amino peptide (NAP) derivatives of our tau mimic, mxyl-NAP1 and mxyl-NAP2 (Scheme 1). Each of these analogues features a backbone amide substitution that precludes canonical b-sheet H-bonding along one edge of the macrocycle, while leaving the other edge intact to engage the tau protein. […] Both mxyl-NAP1 and mxyl-NAP2, which feature a single backbone N-amino group within the amyloidogenic PHF6 module, were prepared on solid support starting from Fmoc-protected N-amino dipeptides.

tauP301L [3] = target: T2, tauP301L (Homo sapiens, UniProt P10636, P618L); assay: ThT fluorescence aggregation assay of recombinant tauP301L; assay type: biochemical; settings: 20 μM NAP (2-fold molar excess), 10 μM tauP301L, heparin, 48 h
T2 construct: we expressed and purified full-length tau featuring a P301L mutation; His6 (N); made in house; host or cells: E. coli BL21 (DE3)
Excerpt: as §1
Inhibition of full-length tau aggregation by mxyl-NAPs in a ThT assay. […] TauP301L ([…]) aggregated upon incubation with heparin over the course of 2 days, leading to high ThT fluorescence. […] We also synthesized linear and scrambled controls corresponding to each of the NAP inhibitors.
ThT Fluorescence Aggregation Assay. Recombinant tauP301L (10 μM final concentration) and NAP inhibitors (20 μM final concentration) were mixed in an aggregation buffer (100 mM sodium acetate, 10 μM ThT, 10 μM heparin, 2 mM DTT, and 0.5% DMSO, pH: 7.4) in a 96-well clear bottom black plate with a final reaction volume of 200 μL. The plate was then sealed with a clear sealing film and allowed to incubate at 37° C. with continuous shaking in a Biotek Synergy H1 microplate reader. An automated method was used to carry out ThT fluorescence measurements at an excitation wavelength of 444 nm and an emission wavelength of 485 nm at an interval of every 5 min for 48 h. Experiments were carried out in technical replicates on at least 2 different days. Every experiment included control wells that lacked tauP301L, heparin, or NAPs. The average signal from control wells lacking tau was used to subtract the background fluorescence, and the average of the first and last 10 data points of tau+heparin (no inhibitor) wells, after blank subtraction, was used to normalize the data. All data plots were generated with SigmaPlot.

tauP301L [4] = target: T2, tauP301L; assay: Transmission electron microscopy of heparin-induced tauP301L fibrils; assay type: biochemical; settings: 10 μM tauP301L + heparin, 20 μM NAP (2-fold molar excess), 96 h
Method: This is consistent with previous reports showing that the endpoint ThT fluorescence and fibrilization lag time for full-length tau are particularly resistant to perturbation by inhibitors. […] To confirm the effect of NAPs on the growth of mature tau fibrils, we used transmission electron microscopy (TEM) to visualize the morphology and maturity of fibrillar species. Heparin-induced tauP301L fibrils were allowed to grow over 96 h in the presence or absence of inhibitors. Untreated tauP301L afforded large, helical, and amyloid-like filamentous fibrils.
Inhibition of full-length tau fibrilization by mxyl-NAPs in TEM. To confirm the results from ThT assays, we used TEM to visualize tauP301L fibrils in the absence or presence of synthesized NAPs. As expected, heparin-induced tauP301L formed dense networks of mature fibrils (FIG. 8).
Transmission Electron Microscopy. For analyzing fibrils by TEM, aggregation was carried out under conditions similar to the assay performed above but with ThT excluded and a final reaction volume of 100 μL. Samples were incubated in a microcentrifuge tube for 4 days at 37° C. with a mixing speed of 100 rpm. A 10 μL aliquot of the sample was then applied to 400-meshed formvar-/carbon-coated copper grids and negative-stained with 2% uranyl acetate. Micrographs were obtained on a JEOL 2011 transmission electron microscope at 200 kV.

[5] = target: Human tauP301L (0N4R) with an N-terminal His6 tag (human), P10636; assay: cell-based or functional assay
Human tauP301L (0N4R) with an N-terminal His6 tag (human), P10636, sequence (P10636 other isoform, or with tags, fused parts or gaps): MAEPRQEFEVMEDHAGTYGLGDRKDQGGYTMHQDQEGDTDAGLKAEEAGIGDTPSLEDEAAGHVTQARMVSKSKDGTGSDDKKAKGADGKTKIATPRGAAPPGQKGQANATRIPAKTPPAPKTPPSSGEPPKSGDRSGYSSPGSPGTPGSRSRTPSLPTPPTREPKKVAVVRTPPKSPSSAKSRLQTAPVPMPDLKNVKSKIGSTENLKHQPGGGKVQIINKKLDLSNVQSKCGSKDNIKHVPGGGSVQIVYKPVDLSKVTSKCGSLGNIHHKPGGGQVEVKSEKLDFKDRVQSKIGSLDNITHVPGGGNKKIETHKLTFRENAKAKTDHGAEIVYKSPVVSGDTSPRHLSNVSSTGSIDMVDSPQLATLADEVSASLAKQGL

T2 sequence (P10636 1-383 isoform P10636-6 P243L): as the sequence (P10636 other isoform, or with tags, fused parts or gaps) above, with P243L counted along it

Molecule: CC[C@H](C)[C@H](NC(=O)[C@@H](N)CC(C)C)C(=O)N[C@H](C(=O)N[C@@H](CCCNC(=N)N)C(=O)N[C@@H](CC(C)C)C(=O)N[C@@H](CCC(=O)O)C(=O)N[C@@H](CC(N)=O)C(=O)N[C@H](C(N)=O)[C@@H](C)O)[C@@H](C)O [H-LITRLENT-NH2] (H-LITRLENT-NH2)
intact peptide in 25% human serum [1]: rapidly degraded

Molecule: Ac-VPIVYK-NH2 [proline-containing analogue of PHF6 from the literature (Segal and co-workers)]
aggregation of AcPHF6 in vitro (AcPHF6): inhibits the aggregation

Molecule: Ac-VQI[aVal″]Y[N(NH2)Lys]-NH2 [Ac-Val-Gln-Ile-aVal-Tyr-aLys-NH2 (13)]
fibril capping IC50 in cells (seeding of tau-RD(LM)-YFP in HEK293 biosensor cells by pre-formed tauP301L fibrils) [5]: 5 µM

Molecule: Ac-VQ[aIle″]V[aTyr]K-NH2 [Ac-Val-Gln-aIle-Val-aTyr-Lys-NH2 (12)]
fibril capping IC50 in cells (seeding of tau-RD(LM)-YFP in HEK293 biosensor cells by pre-formed tauP301L fibrils) [5]: 5 µM

Further lines, with some results ahead:

endpoint ThT fluorescence of tauP301L (tauP301L [3]): significantly reduce
tauP301L fibril morphology by TEM (tauP301L [4]): short, immature rod-like fibrils
Molecule: Ac-Val-Gln-aIle-Ile-Asn-Lys-NH2 (Ac-VQ[aIle″]INK-NH2) [Compound 2]
self-aggregation, ThT fluorescence of peptide alone [2]: no such fluorescence

endpoint ThT fluorescence of tauP301L (tauP301L [3]): significantly reduce
tauP301L fibril morphology by TEM (tauP301L [4]): short, immature rod-like fibrils
Molecule: Ac-Val-Gln-aIle-Val-Tyr-Lys-NH2 (Ac-VQ[aIle″]VYK-NH2) [Compound 6]
self-aggregation, ThT fluorescence of peptide alone [2]: no such fluorescence

endpoint ThT fluorescence of tauP301L (tauP301L [3]): significantly reduce
tauP301L fibril morphology by TEM (tauP301L [4]): short, immature rod-like fibrils
Molecule: Ac-aVal-Gln-Ile-Val-Tyr-Lys-NH2 (Ac-[aVal″]QIVYK-NH2) [Compound 5]
self-aggregation, ThT fluorescence of peptide alone [2]: no such fluorescence
